Experimental data: article PMC12169662, “De Novo-Designed APC/C Inhibitors Provide a Rationale for Targeting RING-Type E3 Ubiquitin Ligases” (Journal of Medicinal Chemistry, 2025)
Bridge positions count the residues as written; N and C are the ends. Square brackets hold non-standard residues; d marks the D form. Ends that are not written are not given here. R8 = C=CCCCCCC[C@@](C)(N)C(=O)O; S5 = C=CCCC[C@](C)(N)C(=O)O

How the values were obtained:
[1] = molecular target: T1, recombinant APC/C (anaphase promoting complex/cyclosome) (UniProt Q9NYG5 1-84; Q9UJX6 1-822; Q9H1A4 1-1944; P30260 1-824); assay: cell-based or functional assay
T1 sequence (P30260 whole entry, looked up, chain 1 of 4): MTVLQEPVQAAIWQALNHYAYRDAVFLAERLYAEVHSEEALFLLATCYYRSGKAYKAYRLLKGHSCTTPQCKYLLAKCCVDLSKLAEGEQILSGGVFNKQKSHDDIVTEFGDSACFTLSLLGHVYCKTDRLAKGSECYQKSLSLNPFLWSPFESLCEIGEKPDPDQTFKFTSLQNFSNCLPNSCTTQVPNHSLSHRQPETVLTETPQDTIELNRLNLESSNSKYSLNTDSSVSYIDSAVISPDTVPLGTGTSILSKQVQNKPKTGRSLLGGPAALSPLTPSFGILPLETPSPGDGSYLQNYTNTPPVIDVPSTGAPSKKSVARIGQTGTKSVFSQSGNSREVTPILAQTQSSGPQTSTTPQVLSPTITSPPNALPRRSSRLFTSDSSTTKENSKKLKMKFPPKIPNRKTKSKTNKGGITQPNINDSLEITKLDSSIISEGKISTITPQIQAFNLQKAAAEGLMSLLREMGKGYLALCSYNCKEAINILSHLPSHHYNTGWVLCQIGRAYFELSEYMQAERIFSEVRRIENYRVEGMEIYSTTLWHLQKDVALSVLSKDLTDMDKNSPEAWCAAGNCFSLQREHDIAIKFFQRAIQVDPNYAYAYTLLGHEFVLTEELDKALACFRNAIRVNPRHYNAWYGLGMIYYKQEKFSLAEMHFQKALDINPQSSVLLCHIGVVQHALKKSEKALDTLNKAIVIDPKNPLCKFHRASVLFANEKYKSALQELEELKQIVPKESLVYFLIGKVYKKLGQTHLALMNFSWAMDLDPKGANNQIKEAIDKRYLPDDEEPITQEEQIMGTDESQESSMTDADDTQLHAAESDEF
T1 sequence (Q9H1A4 whole entry, looked up, chain 2 of 4): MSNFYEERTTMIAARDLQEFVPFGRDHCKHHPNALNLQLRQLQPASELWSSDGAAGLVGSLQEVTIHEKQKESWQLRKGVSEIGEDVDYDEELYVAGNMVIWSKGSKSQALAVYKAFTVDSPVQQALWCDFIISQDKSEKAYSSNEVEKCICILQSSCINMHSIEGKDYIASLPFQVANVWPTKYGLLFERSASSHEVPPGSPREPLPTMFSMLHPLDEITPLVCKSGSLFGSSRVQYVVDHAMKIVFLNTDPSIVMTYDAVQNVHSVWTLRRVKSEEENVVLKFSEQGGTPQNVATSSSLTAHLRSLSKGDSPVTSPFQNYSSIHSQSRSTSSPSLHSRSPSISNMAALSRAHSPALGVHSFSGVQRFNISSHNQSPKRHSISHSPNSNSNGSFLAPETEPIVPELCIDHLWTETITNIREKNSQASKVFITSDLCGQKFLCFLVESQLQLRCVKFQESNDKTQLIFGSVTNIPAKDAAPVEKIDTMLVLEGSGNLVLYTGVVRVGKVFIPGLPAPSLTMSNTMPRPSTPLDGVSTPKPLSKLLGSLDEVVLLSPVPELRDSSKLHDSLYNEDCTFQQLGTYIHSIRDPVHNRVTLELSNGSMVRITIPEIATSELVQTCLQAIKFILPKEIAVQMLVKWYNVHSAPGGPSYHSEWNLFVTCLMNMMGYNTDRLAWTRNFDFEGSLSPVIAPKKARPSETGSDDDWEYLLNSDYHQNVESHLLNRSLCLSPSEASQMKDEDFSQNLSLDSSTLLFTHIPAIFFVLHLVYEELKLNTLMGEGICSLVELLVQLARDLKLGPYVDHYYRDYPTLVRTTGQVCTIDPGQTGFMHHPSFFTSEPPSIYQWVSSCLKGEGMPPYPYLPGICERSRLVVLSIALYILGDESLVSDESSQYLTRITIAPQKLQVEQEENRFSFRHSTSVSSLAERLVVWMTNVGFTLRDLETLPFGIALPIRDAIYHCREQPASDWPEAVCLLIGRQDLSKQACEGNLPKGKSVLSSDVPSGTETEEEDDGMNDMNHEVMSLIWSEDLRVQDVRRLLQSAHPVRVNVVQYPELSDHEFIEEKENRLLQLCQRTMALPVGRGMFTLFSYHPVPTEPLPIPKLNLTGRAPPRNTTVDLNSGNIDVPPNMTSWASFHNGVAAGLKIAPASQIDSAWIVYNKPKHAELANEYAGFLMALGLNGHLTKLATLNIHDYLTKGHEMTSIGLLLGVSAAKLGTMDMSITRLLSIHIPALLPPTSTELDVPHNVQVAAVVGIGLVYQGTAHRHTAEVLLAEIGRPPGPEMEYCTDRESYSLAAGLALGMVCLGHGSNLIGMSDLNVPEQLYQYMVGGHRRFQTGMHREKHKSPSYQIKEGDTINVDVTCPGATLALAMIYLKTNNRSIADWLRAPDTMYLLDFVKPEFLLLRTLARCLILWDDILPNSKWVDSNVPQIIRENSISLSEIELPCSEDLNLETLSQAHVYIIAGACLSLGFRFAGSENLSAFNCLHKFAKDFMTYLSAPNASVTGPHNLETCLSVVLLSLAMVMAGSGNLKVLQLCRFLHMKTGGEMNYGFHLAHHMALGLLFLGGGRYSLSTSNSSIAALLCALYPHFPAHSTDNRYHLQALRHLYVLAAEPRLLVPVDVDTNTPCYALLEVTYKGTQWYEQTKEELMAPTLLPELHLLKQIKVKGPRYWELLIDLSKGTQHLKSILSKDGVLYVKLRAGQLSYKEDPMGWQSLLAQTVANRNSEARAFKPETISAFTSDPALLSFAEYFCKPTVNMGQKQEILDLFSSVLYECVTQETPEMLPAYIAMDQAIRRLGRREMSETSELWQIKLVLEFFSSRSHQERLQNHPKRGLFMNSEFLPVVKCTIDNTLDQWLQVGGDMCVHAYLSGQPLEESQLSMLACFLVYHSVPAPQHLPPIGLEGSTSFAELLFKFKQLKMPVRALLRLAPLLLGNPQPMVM
T1 sequence (Q9UJX6 whole entry, looked up, chain 3 of 4): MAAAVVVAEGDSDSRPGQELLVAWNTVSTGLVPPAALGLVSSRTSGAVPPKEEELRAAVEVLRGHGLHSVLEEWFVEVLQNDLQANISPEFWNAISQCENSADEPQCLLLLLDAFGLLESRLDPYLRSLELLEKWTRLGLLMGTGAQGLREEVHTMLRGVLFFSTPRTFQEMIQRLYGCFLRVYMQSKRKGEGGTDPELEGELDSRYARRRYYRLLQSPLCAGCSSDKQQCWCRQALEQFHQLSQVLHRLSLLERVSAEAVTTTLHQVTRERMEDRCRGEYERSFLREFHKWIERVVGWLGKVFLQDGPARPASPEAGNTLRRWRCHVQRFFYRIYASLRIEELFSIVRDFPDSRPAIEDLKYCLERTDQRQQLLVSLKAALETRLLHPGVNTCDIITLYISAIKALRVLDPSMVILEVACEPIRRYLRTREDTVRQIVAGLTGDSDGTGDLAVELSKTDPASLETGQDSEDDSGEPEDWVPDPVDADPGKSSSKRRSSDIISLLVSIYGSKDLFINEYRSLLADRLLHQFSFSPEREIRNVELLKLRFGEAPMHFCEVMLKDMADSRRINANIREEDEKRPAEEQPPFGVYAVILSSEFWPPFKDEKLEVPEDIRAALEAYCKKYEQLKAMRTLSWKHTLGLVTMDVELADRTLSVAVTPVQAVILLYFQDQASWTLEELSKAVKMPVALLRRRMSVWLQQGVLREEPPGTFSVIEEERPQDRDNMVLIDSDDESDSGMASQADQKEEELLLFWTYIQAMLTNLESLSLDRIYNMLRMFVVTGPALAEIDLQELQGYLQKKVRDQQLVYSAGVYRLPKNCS
T1 sequence (Q9NYG5 whole entry, looked up, chain 4 of 4): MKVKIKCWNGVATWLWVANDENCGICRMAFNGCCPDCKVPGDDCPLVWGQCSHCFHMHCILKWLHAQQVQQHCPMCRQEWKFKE

[2] = molecular target: T1, recombinant APC/C (anaphase promoting …); assay: enzyme kinetics (in vitro APC/C ubiquitination assay); 20 nM recombinant APC/C, 340 nM CDC20, UBA1, UBE2C K119R, ubiquitin; securin titrated from 50 nM to 5 μM with and without H6; initial velocity; 30 °C, 30 mM HEPES pH 7.4, 175 mM NaCl, 8 mM MgCl2; model for noncompetitive inhibition; settings: both partners purified

Question: How did the “IC50 of in vitro APC/C ubiquitination of the substrate, H6 titrated from 0.01 to 100 μM; blocks E2 recruitment to the RING domain of APC/C” value [1] turn out when EWW[R8]IKEIQR[S5]RRA (designed binder, staple 4-11) [H6] was run?
Answer: Its value is 1.96 µM.

Question: What about the Ki [2] of the same binder?
Answer: The Ki was 5.03 ± 0.79 µM.
